Results on 1 molecule are retold here after patent publication US20070172423A1, “Composition and method for modulating vasculogenesis for angiogenesis” (priority 1998, published 2007).

Experiment [1] deals with hSMC. Nature of the experiment: Cell migration assay, hSMC. The experiment is classed as cell-based, human. The settings on record: wounded monolayer, 20 hours. The procedure:
Cell migration assays were performed on growth arrested confluent HMVEC, BAEC or hSMC cells. Cell monolayers were wounded with a rubber policeman and washed with serum-free medium. Dishes were then incubated for 20 hours in serum-free medium containing VEGF165, PDGF-AA, (R&D Systems, Minneapolis USA) or PDGF-CC. Each assay included two dishes per condition and was repeated three times independently. Cells were photographed at 40× magnification, and migration percentage corresponding to the ratio between area of the cells and the total area of the wound (Biocom visiol@b 2000 version 4.52, San Diego). […] After 7 days, viable cells were counted using the cell Titer-glo luminescent cell viability assay. […] Two days later, cell numbers were counted and proliferation percentage calculated, using cells cultured in medium containing 10% serum as control. […] Aortic rings were analysed at day 9 of culturing. […]
The mitogenic and chemotactic effect of PDGF-CC was then tested on SMCs and perivascular fibroblast cells, and the effect of PDGF-CC was compared to that of VEGF and PDGF-AA in both cultured cells and the aortic ring assay (Blacher et al., Angiogenesis, 2001 4:133-42). […] In the aortic ring assay, we quantified the growth and emigration of perivascular fibroblasts from the intact vessel using computer-assisted image analysis after treatment with VEGF and different PDGFs at different concentrations. […]

For experiment [2], the system named is human microvascular endothelial cells (HMVEC). As to the kind of experiment: Cell migration assay, HMVEC. The settings on record: wounded monolayer, 20 hours, serum-free medium. The experiment is classed as cell-based. The procedure:
Cell migration assays were performed on growth arrested confluent HMVEC, BAEC or hSMC cells. Cell monolayers were wounded with a rubber policeman and washed with serum-free medium. Dishes were then incubated for 20 hours in serum-free medium containing VEGF165, PDGF-AA, (R&D Systems, Minneapolis USA) or PDGF-CC. Each assay included two dishes per condition and was repeated three times independently. Cells were photographed at 40× magnification, and migration percentage corresponding to the ratio between area of the cells and the total area of the wound (Biocom visiol@b 2000 version 4.52, San Diego). For HMVEC proliferation assay, cells were seeded in 96-well plates (5 wells per condition), and incubated with VEGF, PDGF-AA, or PDGF-CC (50 ng/ml) after serum starvation. After 7 days, viable cells were counted using the cell Titer-glo luminescent cell viability assay. For NIH-3T3 and hSMC proliferation assay, cells cultured in 96-well plates were serum-starved overnight, followed by treatment with growth factors at different concentrations. Two days later, cell numbers were counted and proliferation percentage calculated, using cells cultured in medium containing 10% serum as control. Aortic ring assay was performed as described 51. […] Aortic rings were analysed at day 9 of culturing. […]

B1: PDGF-CC: recombinant human PDGF-CC core domain homodimer, residues 230-345 of full-length PDGF-C (SEQ ID NO:40), produced in baculovirus infected insect cells (protein)
chain: GRKSRVVDLNLLTEEVRLYSCTPRNFSVSIREELKRTDTIFWPGCLLVKRCGGNCACCLHNCNECQCVPSKVTKKYHEVLQLRPKTGVRGLHKSLTDVALEHHEECDCVCRGSTGG
modifications: homodimer; PDGF-C core domain
Consider B1, for which the hSMC migration result in experiment [1] is recorded as “stimulated”. For the same molecule, the “migration of HMVECs” value in experiment [2] is listed as “stimulated”.
